The series “mass photometry” deals with the molecule itself. The experiment in a line: mass photometry.
The series “SEC” deals with the molecule itself. As to the kind of experiment: SEC. Background: Size exclusion chromatography separates by hydrodynamic size, large species first.

From publication PMC10240212 (EMBO Reports, 2023) come the findings set out here.

B1: Teneurin‐m superfold (Ten‐m^SF), residues 779–2731 (domain or fragment)
chain: LNCGDSKDNDKDGLVDCEDPECCASHVCKTSQLCVSAPKPIDVLLRKQPPAITASFFERMKFLIDESSLQNYAKLETFNESRSAVIRGRVVTSLGMGLVGVRVSTTTLLEGFTLTRDDGWFDLMVNGGGAVTLQFGRAPFRPQSRIVQVPWNEVVIIDLVVMSMSEEKGLAVTTTHTCFAHDYDLMKPVVLASWKHGFQGACPDRSAILAESQVIQESLQIPGTGLNLVYHSSRAAGYLSTIKLQLTPDVIPTSLHLIHLRITIEGILFERIFEADPGIKFTYAWNRLNIYRQRVYGVTTAVVKVGYQYTDCTDIVWDIQTTKLSGHDMSISEVGGWNLDIHHRYNFHEGILQKGDGSNIYLRNKPRIILTTMGDGHQRPLECPDCDGQATKQRLLAPVALAAAPDGSLFVGDFNYIRRIMTDGSIRTVVKLNATRVSYRYHMALSPLDGTLYVSDPESHQIIRVRDTNDYSQPELNWEAVVGSGERCLPGDEAHCGDGALAKDAKLAYPKGIAISSDNILYFADGTNIRMVDRDGIVSTLIGNHMHKSHWKPIPCEGTLKLEEMHLRWPTELAVSPMDNTLHIIDDHMILRMTPDGRVRVISGRPLHCATASTAYDTDLATHATLVMPQSIAFGPLGELYVAESDSQRINRVRVIGTDGRIAPFAGAESKCNCLERGCDCFEAEHYLATSAKFNTIAALAVTPDSHVHIADQANYRIRSVMSSIPEASPSREYEIYAPDMQEIYIFNRFGQHVSTRNILTGETTYVFTYNVNTSNGKLSTVTDAAGNKVFLLRDYTSQVNSIENTKGQKCRLRMTRMKMLHELSTPDNYNVTYEYHGPTGLLRTKLDSTGRSYVYNYDEFGRLTSAVTPTGRVIELSFDLSVKGAQVKVSENAQKEMSLLIQGATVIVRNGAAESRTTVDMDGSTTSITPWGHNLQMEVAPYTILAEQSPLLGESYPVPAKQRTEIAGDLANRFEWRYFVRRQQPLQAGKQSKGPPRPVTEVGRKLRVNGDNVLTLEYDRETQSVVVMVDDKQELLNVTYDRTSRPISFRPQSGDYADVDLEYDRFGRLVSWKWGVLQEAYSFDRNGRLNEIKYGDGSTMVYAFKDMFGSLPLKVTTPRRSDYLLQYDDAGALQSLTTPRGHIHAFSLQTSLGFFKYQYYSPINRHPFEILYNDEGQILAKIHPHQSGKVAFVHDTAGRLETILAGLSSTHYTYQDTTSLVKSVEVQEPGFELRREFKYHAGILKDEKLRFGSKNSLASARYKYAYDGNARLSGIEMAIDDKELPTTRYKYSQNLGQLEVVQDLKITRNAFNRTVIQDSAKQFFAIVDYDQHGRVKSVLMNVKNIDVFRLELDYDLRNRIKSQKTTFGRSTAFDKINYNADGHVVEVLGTNNWKYLFDENGNTVGVVDQGEKFNLGYDIGDRVIKVGDVEFNNYDARGFVVKRGEQKYRYNNRGQLIHSFERERFQSWYYYDDRSRLVAWHDNKGNTTQYYYANPRTPHLVTHVHFPKISRTMKLFYDDRDMLIALEHEDQRYYVATDQNGSPLAFFDQNGSIVKEMKRTPFGRIIKDTKPEFFVPIDFHGGLIDPHTKLVYTEQRQYDPHVGQWMTPLWETLATEMSHPTDVFIYRYHNNDPINPNKPQNYMIDLDSWLQLFGYDLNNMQSSRYTKLAQYTPQASIKSNTLAPDFGVISGLECIVEKTSEKFSDFDFVPKPLLKMEPKMRNLLPRVSYRRGVFGEGVLLSRIGGRALVSVVDGSNSVVQDVVSSVFNNSYFLDLHFSIHDQDVFYFVKDNVLKLRDDNEELRRLGGMFNISTHEISDHGGSAAKELRLHGPDAVVIIKYGVDPEQERHRILKHAHKRAVERAWELEKQLVAAGFQGRGDWTEEEKEELVQHGDVDGWNGIDIHSIHKYPQLADDPGNVAFQRDAKRKRRKTGSSHRSASNRRQLKFGELSA
In general, stoichiometry N refers to the number of molecules, sites or subunits per partner or assembly. As to B1, the “stoichiometry N” value is roughly 4 in the series “mass photometry” and 2 in “SEC”.
